Measured values: US20260217813A1 (published 2026)

Target: T1, IL-12 (Human IL12 (His Tag)), Sino Biological Cat. No. CT-050-H08H-20 (human, UniProt P29460 23-328; P29459 23-219)
T1 construct: Bought His-tagged p35/p40 heterodimer
T1 sequence (looked up) 1: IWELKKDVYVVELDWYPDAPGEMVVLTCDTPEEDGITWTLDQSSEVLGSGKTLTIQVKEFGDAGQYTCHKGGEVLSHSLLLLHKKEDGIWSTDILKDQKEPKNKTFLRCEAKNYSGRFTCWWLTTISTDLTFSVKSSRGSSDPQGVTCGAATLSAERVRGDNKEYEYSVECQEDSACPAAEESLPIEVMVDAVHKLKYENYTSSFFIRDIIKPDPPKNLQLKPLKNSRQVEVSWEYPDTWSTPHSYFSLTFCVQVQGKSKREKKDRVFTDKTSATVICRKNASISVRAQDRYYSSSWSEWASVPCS
T1 sequence (looked up) 2: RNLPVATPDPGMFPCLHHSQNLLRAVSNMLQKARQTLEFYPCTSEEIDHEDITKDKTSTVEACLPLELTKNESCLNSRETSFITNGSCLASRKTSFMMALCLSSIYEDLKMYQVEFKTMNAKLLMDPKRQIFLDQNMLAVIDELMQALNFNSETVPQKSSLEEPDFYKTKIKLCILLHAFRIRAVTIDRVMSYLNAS
Assay: FACS competition, IL12-His (40 nM mixed 1:1) on 293T-IL-12RB1&IL-23R cells
Experimental: 200 μL of 1% PBSA was added into each sample, and the mixture was centrifuged at 1200 rpm for 5 min to discard the supernatant. According to experiment design, correspondingly diluted antibody (highest final concentration of 60 μg/mL, 3-fold dilution, 8 concentrations in total) and IL12-His (Sino Biological, Cat. No.: CT-050-H08H-20) (40 nM) were mixed at a ratio of 1:1, and a blank control was set. The mixture of antibody and IL12 was incubated on ice for 30 min and then added to the cell precipitate at 100 μL/sample. The resulting mixture was well mixed and incubated on ice for 60 min. 200 μL of 1% PBSA was added, and the mixture was centrifuged at 1200 rpm for 5 min to discard the supernatant, and then washed twice. THETM His tag antibody (FITC) (Genscript, Cat. No.: A01620) was diluted at a ratio of 1:500 and added to each tube at 100 μL. The mixture was well mixed and incubated on ice for 40 min in the absence of light. 200 μL of 1% PBSA was added, and the mixture was centrifuged at 1200 rpm for 5 min to discard the supernatant, and then washed twice. 1% PBSA was added at 200 μL/tube, and the cells were resuspended and transferred to a flow cytometry tube for testing.

EC50: 1.46 µg/mL
B1: H8L15 (antibody, human IgG1, kappa, V domains shown)
VH: EVQLVQSGAEVKKPGESLKISCQSSGYTFTSYWIGWVRQMPGQGLEWIGIMSPVDSDIRYNPMFRGQVTMSVDKSSSTAYLQWSSLKASDTAMYYCARRRPGQGYFDFWGQGTMVTVSS
VL: EIVLTQSPATLSASPGERATISCRASQSVGTWVAWYQQKPGQAPRSLIYAASNLQSGIPARFSGSGSGTDFTLTISSLEPEDFAVYYCQQYNIYPYTFGQGTRLEIKR
notes: IgG1 (P01857) / kappa (P01834) constant regions
